± gives the standard deviation of the averaged measurements.
Test: total protein half-life in vivo (active degradation + dilution); higher = more stable protein
[1] = E. coli NCM3722 delta-clpP delta-lon delta-hslV, growth: N-lim chemostat, doubling time 6 h
[2] = E. coli NCM3722 delta-clpP, growth: N-lim chemostat, doubling time 6 h
[3] = E. coli NCM3722 delta-hslV, growth: N-lim chemostat, doubling time 6 h
[4] = E. coli NCM3722 delta-lon, growth: N-lim chemostat, doubling time 6 h
[5] = E. coli NCM3722 delta-smpB, growth: N-lim chemostat, doubling time 6 h
[6] = wild type E. coli NCM3722, growth: C-lim chemostat, doubling time 3 h
[7] = wild type E. coli NCM3722, growth: C-lim chemostat, doubling time 6 h
[8] = wild type E. coli NCM3722, growth: C-lim chemostat, doubling time 12 h
[9] = wild type E. coli NCM3722, growth: N-lim chemostat, doubling time 6 h
[10] = wild type E. coli NCM3722, growth: N-lim chemostat, doubling time 12 h
[11] = wild type E. coli NCM3722, growth: P-lim chemostat, doubling time 6 h
[12] = wild type E. coli NCM3722, growth: P-lim chemostat, doubling time 12 h

Sequence	total protein half-life in vivo [1]	total protein half-life in vivo [2]	total protein half-life in vivo [3]	total protein half-life in vivo [4]	total protein half-life in vivo [5]	total protein half-life in vivo [6]	total protein half-life in vivo [7]	total protein half-life in vivo [8]	total protein half-life in vivo [9]	total protein half-life in vivo [10]	total protein half-life in vivo [11]	total protein half-life in vivo [12]
MKPGCTLFFLLCSALTVTTEAHAQTPDTATTAPYLLAGAPTFDLSISQFREDFNSQNPSLPLNEFRAIDSSPDKANLTRAASKINENLYASTALERGTLKIKSIQMTWLPIQGPEQKAAKAKAQEYMAAVIRTLTPLMTKTQSQKKLQSLLTAGKNKRYYTETEGALRYVVADNGEKGLTFAVEPIKLALSESLEGLNK	6.2 ± 0.26 h	5.91 ± 0.5 h	5.05 ± 0.18 h	5.3822 ± 0.0028 h	5.12 ± 0.43 h	2.86 ± 0.12 h	5.26 ± 1.2 h	8.36 ± 0.16 h	4.14 ± 0.39 h	8.35 ± 1.6 h	3.75 ± 0.27 h	8.75 ± 1.1 h
MTDHTMKKNPVSIPHTVWYADDIRRGEREAADVLGLTLYELMLRAGEAAFQVCRSAYPDARHWLVLCGHGNNGGDGYVVARLAKAVGIEVTLLAQESDKPLPEEAALAREAWLNAGGEIHASNIVWPESVDLIVDALLGTGLRQAPRESISQLIDHANSHPAPIVAVDIPSGLLAETGATPGAVINADHTITFIALKPGLLTGKARDVTGQLHFDSLGLDSWLAGQETKIQRFSAEQLSHWLKPRRPTSHKGDHGRLVIIGGDHGTAGAIRMTGEAALRAGAGLVRVLTRSENIAPLLTARPELMVHELTMDSLTESLEWADVVVIGPGLGQQEWGKKALQKVENFRKPMLWDADALNLLAINPDKRHNRVITPHPGEAARLLGCSVAEIESDRLHCAKRLVQRYGGVAVLKGAGTVVAAHPDALGIIDAGNAGMASGGMGDVLSGIIGALLGQKLSPYDAACAGCVAHGAAADVLAARFGTRGMLATDLFSTLQRIVNPEVTDKNHDESSNSAP	5.24 ± 0.42 h	4.62 ± 0.52 h	4.91 ± 0.3 h	5.56 ± 0.66 h	4.42 ± 0.3 h	3.2 ± 0.32 h	6.53 ± 1.6 h	10.1 ± 3.4 h	4.25 ± 0.34 h	8.83 ± 1.5 h	5.62 ± 0.14 h	11.3 ± 0.24 h
MSDVAETLDPLRLPLQGERLIEASAGTGKTFTIAALYLRLLLGLGGSAAFPRPLTVEELLVVTFTEAATAELRGRIRSNIHELRIACLRETTDNPLYERLLEEIDDKAQAAQWLLLAERQMDEAAVFTIHGFCQRMLNLNAFESGMLFEQQLIEDESLLRYQACADFWRRHCYPLPREIAQVVFETWKGPQALLRDINRYLQGEAPVIKAPPPDDETLASRHAQIVARIDTVKQQWRDAVGELDALIESSGIDRRKFNRSNQAKWIDKISAWAEEETNSYQLPESLEKFSQRFLEDRTKAGGETPRHPLFEAIDQLLAEPLSIRDLVITRALAEIRETVAREKRRRGELGFDDMLSRLDSALRSESGEVLAAAIRTRFPVAMIDEFQDTDPQQYRIFRRIWHHQPETALLLIGDPKQAIYAFRGADIFTYMKARSEVHAHYTLDTNWRSAPGMVNSVNKLFSQTDDAFMFREIPFIPVKSAGKNQALRFVFKGETQPAMKMWLMEGESCGVGDYQSTMAQVCAAQIRDWLQAGQRGEALLMNGDDARPVRASDISVLVRSRQEAAQVRDALTLLEIPSVYLSNRDSVFETLEAQEMLWLLQAVMTPERENTLRSALATSMMGLNALDIETLNNDEHAWDVVVEEFDGYRQIWRKRGVMPMLRALMSARNIAENLLATAGGERRLTDILHISELLQEAGTQLESEHALVRWLSQHILEPDSNASSQQMRLESDKHLVQIVTIHKSKGLEYPLVWLPFITNFRVQEQAFYHDRHSFEAVLDLNAAPESVDLAEAERLAEDLRLLYVALTRSVWHCSLGVAPLVRRRGDKKGDTDVHQSALGRLLQKGEPQDAAGLRTCIEALCDDDIAWQTAQTGDNQPWQVNDVSTAELNAKTLQRLPGDNWRVTSYSGLQQRGHGIAQDLMPRLDVDAAGVASVVEEPTLTPHQFPRGASPGTFLHSLFEDLDFTQPVDPNWVREKLELGGFESQWEPVLTEWITAVLQAPLNETGVSLSQLSARNKQVEMEFYLPISEPLIASQLDTLIRQFDPLSAGCPPLEFMQVRGMLKGFIDLVFRHEGRYYLLDYKSNWLGEDSSAYTQQAMAAAMQAHRYDLQYQLYTLALHRYLRHRIADYDYEHHFGGVIYLFLRGVDKEHPQQGIYTTRPNAGLIALMDEMFAGMTLEEA	5.03 ± 0.26 h	4.28 ± 0.35 h	3.64 ± 0.075 h	3.84 ± 0.3 h	3.72 ± 0.33 h	3.13 ± 0.34 h	5.03 ± 0.71 h	13.2 ± 3.9 h	3.87 ± 0.3 h	5.71 ± 0.92 h	6.9 ± 0.91 h	10.4 ± 0.56 h
MYQDKILVRQLGLQPYEPISQAMHEFTDTRDDSTLDEIWLVEHYPVFTQGQAGKAEHILMPGDIPVIQSDRGGQVTYHGPGQQVMYVLLNLKRRKLGVRELVTLLEQTVVNTLAELGIEAHPRADAPGVYVGEKKICSLGLRIRRGCSFHGLALNVNMDLSPFLRINPCGYAGMEMAKISQWKPEATTNNIAPRLLENILALLNNPDFEYITA	4.39 ± 0.44 h	4.08 ± 0.77 h	3.55 h	> 8 h	3.73 ± 0.15 h	2.63 ± 0.15 h	6.03 ± 0.89 h	14.3 h	5.66 h	5.51 ± 1.4 h	5.14 ± 0.06 h	10.6 ± 0.37 h

Reference: the supplement of paper PMC11246515
